Measurements taken from patent US20200247894A1 (Regeneron, published 2020).
Positions count from the first letter of the chain named.

T1: Macaca fascicularis IL2Rγ extracellular domain expressed with a C-terminal myc-myc-hexahistidine tag (Macaca fascicularis)
T1 construct: also called mfIL-2Rg-MMH; mfIL-2RG-MMH
T1 chain: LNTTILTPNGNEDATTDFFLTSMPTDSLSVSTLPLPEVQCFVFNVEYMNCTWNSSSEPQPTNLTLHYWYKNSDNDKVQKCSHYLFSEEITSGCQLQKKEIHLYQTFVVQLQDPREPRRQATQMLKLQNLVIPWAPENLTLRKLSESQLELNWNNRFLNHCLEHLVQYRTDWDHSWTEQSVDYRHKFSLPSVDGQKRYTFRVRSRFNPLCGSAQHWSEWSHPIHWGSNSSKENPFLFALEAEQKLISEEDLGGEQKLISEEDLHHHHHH

T2: Human IL2Rγ extracellular domain expressed with a C-terminal myc-myc-hexahistidine tag (human)
T2 construct: also called hIL-2Rg-MMH; hIL-2RG-MMH
T2 chain: T1 chain with A14T, T16A, S22T, R141H, S228T

B1: H4H13541P (antibody, human IgG4 S228P, kappa, V domains shown)
VH: EVQLVESGGGVVRPGGSLRLSCAASGFIFDDYDMSWVRQPPGRGLEWVSGIDWFGGTRGYADSMKGRFTISRDNAKNSLYLQMNSLRVEDTAFYYCARGGAIVGAVTPFDYWGQGTLVTVSS
VL: DIQMTQSPSSLSASVGNRVTLSCRASQSINTYLSWYQQRPGKAPKLLIYAASSLQSGVPSRFSGSGAGTDFTLTISSLQPEDFATYYCQQSYSAPLTFGGGTKVEIKR
notes: anti-IL2Rgamma mAb expressed with human IgG4 Fc
B2: H4H12908P (antibody, human IgG4 S228P, kappa, V domains shown)
VH: EVQLVESGGRLVQPGGSLRLSCEASGFTFSNYGMTWVRQAPGKGLEWVSVISGSDNRKYYAESVKGRFTISRDNSKNTLYLQMNSLRAEDTAVYYCAKLGYSRSSKDFYYGMDVWGQGTTVTVSS
VL: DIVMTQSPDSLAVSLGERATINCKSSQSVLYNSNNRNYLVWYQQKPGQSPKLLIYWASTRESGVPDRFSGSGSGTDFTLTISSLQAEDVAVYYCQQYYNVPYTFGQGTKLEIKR
notes: as for B1
B3: H4H12884P (antibody, human IgG4 S228P, kappa, V domains shown)
VH: QVQLQESGPGLVKPSQTLSLTCTVSGGSISSGGYYWSWIRQHPGKGLEWIGFIYYSGKTYYNPSLKSRLTISVDTSKSQFSLKLRSVTAADTAVYYCARLGYTNSAGWFDPWGQGTLVTVSS
VL: DIQMTQSPSSLSASVGDRVTITCRASQSISSYLNWYQQKPGKAPNLLIYAASSLQSGVPSRFSGSGSGTDFTLTISSLQPEDLATYYCQQSYTTPFTFGPGTKVDIKR
notes: as for B1
B4: H4H12890P (antibody, human IgG4 S228P, kappa, V domains shown)
VH: EVQLVESGGGLVQPGGSLRLSCAASGFTFNNYAMHWVRQAPGKGLEYVSSISSSGGSTYYEDSVKGRFTISRDNSKNTLYLQMGSLRAEDMAVYYCARSFYGSGTYYDTFDMWGQGTMVTVSS
VL: B3 VL with V15I, S31R, N45K, G64A, L83F, T93S, P100Q, V104L, D105E
notes: as for B1
B5: H4H12889P (antibody, human IgG4 S228P, kappa, V domains shown)
VH: EVQLVESGGGLVQPGGSLRLSCAASGFIFSSYEMHWVRQAPGKGLEWISYISSSGTTIYYADSVKGRFTISRDNAKNSLYLHMNSLRAEDTAVYYCTRARITGTFDVFDIWGQGTMVTVSS
VL: DIQMTQSPSSLSASVGDRVTITCRASQSISSYLNWYQQKPGKAPKLLIFAASNLQSGVPSRFSGSRSGTDFTLTISSLQPEDFATYYCQQNYNIPYTFGQGTKLEIKR
notes: anti-IL2Rgamma mAb expressed with human IgG4 Fc; also called REGN7257
B6: H4H13544P2 (antibody, human IgG4 S228P, kappa, V domains shown)
VH: QLQLQESGPGLVKPSETLSLTCTVSGGSISIKNYYWGWIRQPPGKGLEWIGSIYYSGTTYYNPSLKSRVTISVDTSKNQFSLKLSSVTAADTAVYHCARHGYSYGHGWFDPWGQGTLVTVSS
VL: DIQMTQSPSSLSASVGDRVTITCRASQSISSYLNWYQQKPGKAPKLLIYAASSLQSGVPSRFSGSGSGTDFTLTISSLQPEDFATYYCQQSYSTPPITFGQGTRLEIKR
notes: as for B1
B7: H4H12899P (antibody, human IgG4 S228P, kappa, V domains shown)
VH: QVQLVESGGDLVKPGGSLRLSCATSGFTFSDFYMTWIRQAPGKGLEWISYISNSGSIVKYADSVKGRFTISRDNAKNSLYLQMNSLRAEDTAIYYCARFYGDRWGQGTLVTVSS
VL: DIQLTQSPSFLSASVGDRVTITCWASQGISTFLAWYQQKPGKAPKLLIYAASTLQSGVPSRFSGSGSGTDFTLTISSLQPEDFATYHCQQLNNYPWTFGQGTKVEIKR
notes: as for B1
B8: H4H12900P (antibody, human IgG4 S228P, kappa, V domains shown)
VH: QVQLVESGGGLVKPGGSLRLSCEASGFTFNDFYMTWIRQAPGKGLEWIAYISKSGDKMRYADSVKGRFSTSRDNAKNSLSLQMNSLRAEDTAVYYCARFYGDIWGQGTLVTVSS
VL: B7 VL with G28D, T31S, A34V, K45N, T53A, D70E, T85S, H87Y, Q89E
notes: as for B1
B9: H4H12886P (antibody, human IgG4 S228P, kappa, V domains shown)
VH: EVQLVESGGGLVKPGGSLRLSCAASGFTFSTAWMSWVRQSPGRGLEWVGRMKSKTDGGTTFYAAPVKGRFTISRDDSKNTLYLQMNSLKTEDTAVYYCTTGLVPAFYKYYGVDVWGQGTTVTVSS
VL: DIQMTQSPSSLSASVGDRITITCQASQDITNYLNWYQQKPGKAPNLLIYDASNLVTGVPSRFSGSGSGTDFTFTILSLQPEDIATYYCQQYDSLLTFGPGTKVDIKR
notes: as for B1

Target: T1, Macaca fascicularis IL2Rγ extracellular …
Assay: SPR, captured mAb, 25C, dissociation pH 6.0
Method: (§1) The dissociation rate constant (kd) for binding of IL-2Rγ reagents to purified anti-IL2Rγ monoclonal antibodies was determined using a real-time surface plasmon resonance based Biacore 4000 biosensor platform. […] The CM5 Biacore sensor surface derivatized by amine coupling with monoclonal mouse anti-human Fc antibody (GE, Catalog # BR-1008-39) was used to capture anti-IL2Rγ monoclonal antibodies expressed with human IgG4 Fc. All the IL2Rγ reagents were expressed with a C-terminal myc-myc-hexahistidine tag (subsequently referred to with a -MMH suffix). […] The dissociation of bound IL-2Rg-MMH was performed in PBS-T-pH7.4 or PBS-T-pH6.0 running buffers for 6 minutes.
(§2) Dissociation rate constants (kd) in two running buffers were determined by fitting the real-time binding sensorgrams to a 1:1 binding model using Scrubber 2.0c curve-fitting software. Values of dissociation rate for […] mAb binding to hIL-2RG-MMH and mfIL-2RG-MMH at 25° C. and 37° C. in PBS-T-pH7.4 and PBS-T-pH6.0 is shown in Table 2-1 through Table 2-8.

Binder	100 nM Ag Bound (RU)	koff	t1/2
B1	69 RU	0.000497 s⁻¹	23 min
B2	34 RU	0.000488 s⁻¹	24 min
B3	133 RU	0.00159 s⁻¹	7 min
B4	60 RU	0.000668 s⁻¹	17 min
B5	126 RU	0.000434 s⁻¹	27 min
B6	52 RU	0.0017 s⁻¹	7 min
B7	95 RU	0.000703 s⁻¹	16 min
B8	100 RU	0.000671 s⁻¹	17 min
B9	83 RU	0.000682 s⁻¹	17 min

Target: T2, Human IL2Rγ extracellular domain …
Assay: SPR, captured mAb, 25C, dissociation pH 6.0
Method: as §1, §2

Binder	100 nM Ag Bound (RU)	koff	t1/2
B1	66 RU	0.000469 s⁻¹	25 min
B2	34 RU	0.000505 s⁻¹	23 min
B3	135 RU	0.00199 s⁻¹	6 min
B4	64 RU	0.000636 s⁻¹	18 min
B5	130 RU	0.000437 s⁻¹	26 min
B6	45 RU	0.00175 s⁻¹	7 min
B7	96 RU	0.000568 s⁻¹	20 min
B8	101 RU	0.000692 s⁻¹	17 min
B9	84 RU	0.000634 s⁻¹	18 min

Target: T2, Human IL2Rγ extracellular domain …
Assay: SPR, captured mAb, 37C, dissociation pH 6.0
Method: as §1, §2

Binder	100 nM Ag Bound (RU)	koff	t1/2
B1	95 RU	0.00158 s⁻¹	7 min
B2	52 RU	0.00163 s⁻¹	7 min
B3	136 RU	0.00379 s⁻¹	3 min
B4	82 RU	0.00286 s⁻¹	4 min
B5	153 RU	0.00188 s⁻¹	6 min
B6	39 RU	0.00827 s⁻¹	1.4 min
B7	125 RU	0.00219 s⁻¹	5 min
B8	133 RU	0.00271 s⁻¹	4 min
B9	115 RU	0.00216 s⁻¹	5 min

Target: T1, Macaca fascicularis IL2Rγ extracellular …
Assay: SPR, captured mAb, 25C, dissociation pH 7.4
Method: as §1, §2

Binder	100 nM Ag Bound (RU)	koff	t1/2
B1	80 RU	0.000222 s⁻¹	52 min
B2	37 RU	0.000208 s⁻¹	56 min
B3	160 RU	0.000516 s⁻¹	22 min
B4	71 RU	0.000203 s⁻¹	57 min
B5	123 RU	0.000157 s⁻¹	74 min
B6	67 RU	0.000584 s⁻¹	20 min
B7	117 RU	0.000167 s⁻¹	69 min
B8	129 RU	0.000175 s⁻¹	66 min
B9	113 RU	0.000175 s⁻¹	66 min

Target: T2, Human IL2Rγ extracellular domain …
Assay: SPR, captured mAb, 25C, dissociation pH 7.4
Method: as §1, §2

Binder	100 nM Ag Bound (RU)	koff	t1/2
B1	72 RU	0.000165 s⁻¹	70 min
B2	31 RU	0.000177 s⁻¹	65 min
B3	161 RU	0.00064 s⁻¹	18 min
B4	72 RU	0.000192 s⁻¹	60 min
B5	118 RU	0.000138 s⁻¹	84 min
B6	57 RU	0.000602 s⁻¹	19 min
B7	118 RU	0.000174 s⁻¹	66 min
B8	130 RU	0.000175 s⁻¹	66 min
B9	113 RU	0.000155 s⁻¹	75 min

Target: T2, Human IL2Rγ extracellular domain …
Assay: SPR, captured mAb, 37C, dissociation pH 7.4
Method: as §1, §2

Binder	100 nM Ag Bound (RU)	koff	t1/2
B1	98 RU	0.000532 s⁻¹	22 min
B2	54 RU	0.000671 s⁻¹	17 min
B3	171 RU	0.00151 s⁻¹	8 min
B4	90 RU	0.000661 s⁻¹	17 min
B5	147 RU	0.000636 s⁻¹	18 min
B6	54 RU	0.0041 s⁻¹	2.8 min
B7	158 RU	0.000668 s⁻¹	17 min
B8	162 RU	0.000711 s⁻¹	16 min
B9	146 RU	0.000519 s⁻¹	22 min
